# Source: publication PMC7498318
# Where a chain is given by its changes, count along the chain named.
# B1: M5' ssDNA (ssDNA)
# DNA: ATATTCCCTC
# B2: Exon 4 hp (structured_RNA)
# RNA: GCUGGCGACCUAUUCCCUUUGACGAUCCCUAGGUGGAGAUGGGGCAUGAGGAUCCUCCAGGGGAAUAGCUCACCACC
# B3: Sirloin motif (ssRNA)
# RNA: GCGCCUCCCGGGUUCAAGCGAUUCUCCUGCCUCAGCCUCCCGA
# B4: MYU lncRNA (ssRNA)
# RNA: GGCUCCCCCGACCUCUGUGCUCCCCUCCCCCGACCUCUGUGC
# B5: Rab7 (ssRNA)
# RNA: GUCAUUUUCUCCCUUUCUGUUUUUCUUC
# B6: (2,3) (structured_RNA)
# RNA: GCAGUUUCAGCCCCAGCCCCUAUUUCUGUUUCUGUUUCUGC
# B7: Ucp2 (ssRNA)
# RNA: GCCAACCUCUUCCCAUUUCCCACACUCCAACUCCCU
# B8: B motif RNA WT (structured_RNA)
# RNA: GCAGCCCCAGCCCCAGCCCCUACCCCUGCCCCUGCCCCUGC
# B9: CDK6 3'UTR (ssRNA)
# RNA: GGUCCCCCGCCUCAUUCGCCCCUCUGCUCCC
# B10: (1,2,3,4) (structured_RNA)
# RNA: GCAGCCCCAGCCCCAGCCCCUACCCCUGUUUCUGUUUCUGC
# B11: (1,2,3) (structured_RNA)
# RNA: B10 RNA with C23U, C24U, C25U
# B12: (1,2,3,4,5) (structured_RNA)
# RNA: B8 RNA with C35U, C36U, C37U
# B13: (1,3) (structured_RNA)
# RNA: GCAGCCCCAGUUUCAGCCCCUAUUUCUGUUUCUGUUUCUGC
# B14: (1,6) (structured_RNA)
# RNA: GCAGCCCCAGUUUCAGUUUUUAUUUCUGUUUCUGCCCCUGC
# Molecular target: hnRNPK R9 to S9 (human/mouse (100% identical), UniProt P61978 1-463, R247S;R256S;R258S;R268S;R287S;R296S;R299S;R316S;R326S)
# Experiment: fluorescence anisotropy
row,Binder,Kd [nM]
1,B1,3000 ± 100

# Molecular target: T1, hnRNPK full-length (human/mouse (100% identical), UniProt P61978 1-463)
# Experiment: fluorescence anisotropy
Binder,binding result,Kd [nM]
B2,no binding,–
B1,–,1400 ± 200
B3,–,690 ± 20
B4,–,70 ± 7
B5,–,110 ± 20
B6,–,710
B7,–,44 ± 3
B8,–,61 ± 6
B9,–,450 ± 60

# Molecular target: hnRNPK deltaKH3 (human/mouse (100% identical), UniProt P61978 1-337)
# Experiment: fluorescence anisotropy
row,Binder,Kd [nM]
1,B3,760 ± 40
2,B4,120 ± 10
3,B5,360 ± 80
4,B7,87 ± 9
5,B8,140 ± 30
6,B9,710 ± 50

# Molecular target: hnRNPK KH3 (human/mouse (100% identical), UniProt P61978 379-463)
# Experiment: fluorescence anisotropy
row,Binder,Kd [nM]
1,B1,8700 ± 1300
2,B7,11100 ± 600
3,B9,12900 ± 700

# Molecular target: T1, hnRNPK full-length
# Experiment: fluorescence anisotropy
# Remark: another data set of the same source
row,Binder,binding result
1,B10,binds
2,B11,binds
3,B12,binds

# Molecular target: T1, hnRNPK full-length
# Experiment: fluorescence anisotropy
# Remark: another data set of the same source
row,Binder,binding result
1,B13,no binding
2,B14,no binding

# Molecular target: hnRNPK KH1 (human/mouse (100% identical), UniProt P61978 37-120)
# Experiment: fluorescence anisotropy
row,Binder,binding result
1,B8,no binding
